pKd: −log10 of the molar value. Values joined by “and” are separate entries in the source; they are usually repeats but may differ in a detail not shown here. Identical values can stand only once. Values belong to the molecule of their own block, whether it stands above or below them.
Key:
[1] = target: CRISPR-associated adenosine deaminase 1 (Cad1); experiment: ITC; co-crystal structure at […] Å; type: binding, Bacteroidales bacterium
[2] = target: CRISPR-associated adenosine deaminase 1 (Cad1), hexa-histidyl tagged, full length (unknown Bacteroidales bacterium); experiment: SEC-MALS; Superdex 200 10/300 increase column in buffer A (25 mM Hepes pH 8, 200 mM NaCl, 2 mM beta-mercaptoethanol, 5% glycerol); full-length Cad1 at 20 uM, apo and also after incubation with cA4 or cA6, ATP and MgCl2 (1:5:50:50) at 37 C
[3] = target: Cad1 E408A mutant (unknown Bacteroidales bacterium); experiment: as above
[4] = target: Cad1 K342A mutant (unknown Bacteroidales bacterium); experiment: as above
[5] = target: Cad1 W349A mutant (unknown Bacteroidales bacterium); experiment: as above
[6] = target: hexa-histidyl-tagged CARF domain of Cad1 (residues 1-185) (unknown Bacteroidales bacterium); experiment: as above

Molecule: Nc1ncnc2c1ncn2[C@@H]1O[C@@H]2COP(=O)(O)O[C@H]3[C@@H](O)[C@H](n4cnc5c(N)ncnc54)O[C@@H]3COP(=O)(O)O[C@H]3[C@@H](O)[C@H](n4cnc5c(N)ncnc54)O[C@@H]3COP(=O)(O)O[C@H]3[C@@H](O)[C@H](n4cnc5c(N)ncnc54)O[C@@H]3COP(=O)(O)O[C@H]3[C@@H](O)[C@H](n4cnc5c(N)ncnc54)O[C@@H]3COP(=O)(O)O[C@H]3[C@@H](O)[C@H](n4cnc5c(N)ncnc54)O[C@@H]3COP(=O)(O)O[C@H]2[C@H]1O [cA6]
pKd [1]: 7.52

stoichiometry N [2]: 6 and 2
Molecule: CRISPR-associated adenosine deaminase 1 (Cad1), hexa-histidyl tagged, full length (enzyme)

stoichiometry N [3]: 6
Molecule: Cad1 E408A mutant (enzyme)

stoichiometry N [4]: 6
Molecule: Cad1 K342A mutant (enzyme)

stoichiometry N [5]: 2
Molecule: Cad1 W349A mutant (enzyme)

stoichiometry N [6]: 2
Molecule: hexa-histidyl-tagged CARF domain of Cad1 (residues 1-185) (domain or fragment)
